Experimental data published in publication PMC5098186, “Nuclear import of dimerized ribosomal protein Rps3 in complex with its chaperone Yar1” (Scientific Reports, 2016).

B1: His6-Rps3 (natural protein, S. cerevisiae, UniProt P05750 1-240, looked up)
chain: MVALISKKRKLVADGVFYAELNEFFTRELAEEGYSGVEVRVTPTKTEVIIRATRTQDVLGENGRRINELTLLVQKRFKYAPGTIVLYAERVQDRGLSAVAQAESMKFKLLNGLAIRRAAYGVVRYVMESGAKGCEVVVSGKLRAARAKAMKFADGFLIHSGQPVNDFIDTATRHVLMRQGVLGIKVKIMRDPAKSRTGPKALPDAVTIIEPKEEEPILAPSVKDYRPAEETEAQAEPVEA
notes: ribosomal protein Rps3 of S. cerevisiae, recombinant; also called wild-type Rps3 (of the His6-Rps3/Flag-Yar1 complex); source: E. coli BL21 (DE3) Rosetta Star, purified as His6-Rps3/Flag-Yar1 complex (Ni-NTA agarose); not shown: His6, N-terminal, kept
B2: Flag-Yar1 (natural protein, S. cerevisiae, UniProt P46683 1-200, looked up)
chain: MGLHSEPLDQEDQDTIILDARAGDLDSLKDIFTTLVSPELLSTCKESESDSTALHMAAANGHIETVRYILETVSRANSAEDLKAFVNEVNKTGNTALHWASLNGKLDVVKLLCDEYEADPFIRNKFGHDAIFEAENSGKEEVETYFLKKYDVEPEDDEEDTQTEGKNSVQITKGTEIEQVTKEATEALREETEKLNINKD
notes: Yar1, specific chaperone of Rps3, S. cerevisiae, recombinant

Tests used:
Details in all cases: both partners purified
[1] = molecular target: T1, Kap60ΔIBB (S. cerevisiae, UniProt Q02821 81-542); assay: pull-down; His6-Rps3/Flag-Yar1 complex immobilized via His6-Rps3 on Ni-NTA agarose, incubated with increasing amounts of purified Kap60ΔIBB for 1 h at 4 °C; eluted with 300 mM imidazole (Ni-NTA eluate); Coomassie staining
T1 construct: Kap60/Srp1 (importin α) of S. cerevisiae lacking the N-terminal IBB domain (80 amino acids); also called purified Kap60ΔIBB; purified Kap60; source: E. coli BL21 (DE3) Rosetta Star, purified (glutathione-agarose, eluted with TEV protease)
T1 sequence (looked up): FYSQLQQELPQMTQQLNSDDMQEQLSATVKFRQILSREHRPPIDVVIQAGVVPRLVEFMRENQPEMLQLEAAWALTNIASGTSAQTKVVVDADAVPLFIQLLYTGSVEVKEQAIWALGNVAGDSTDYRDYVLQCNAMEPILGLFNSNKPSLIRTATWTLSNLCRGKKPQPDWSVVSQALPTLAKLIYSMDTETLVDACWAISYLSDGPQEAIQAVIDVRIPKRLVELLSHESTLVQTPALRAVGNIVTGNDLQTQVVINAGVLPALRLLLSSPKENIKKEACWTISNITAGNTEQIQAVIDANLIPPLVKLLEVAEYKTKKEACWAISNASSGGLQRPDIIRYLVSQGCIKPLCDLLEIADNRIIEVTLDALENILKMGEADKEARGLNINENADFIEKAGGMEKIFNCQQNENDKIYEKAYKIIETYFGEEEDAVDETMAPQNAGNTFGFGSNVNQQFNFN

[2] = molecular target: T2, GST-Kap123 (S. cerevisiae, UniProt P40069 1-1113); assay: pull-down; GST-tagged importins immobilized on glutathione-agarose beads, incubated with purified His6-Rps3/Flag-Yar1 complex or purified Flag-Yar1; 50 mM Tris pH 7.5, 150 mM NaCl, 1 mM DTT; eluted by boiling (Fig. 2b, Supplementary Fig. S2) or by TEV cleavage (Fig. 2c); Coomassie staining or Western blotting
T2 construct: Kap123 (karyopherin β4) of S. cerevisiae, recombinant; also called GST-tagged Kap123; source: E. coli BL21 (DE3) Rosetta Star, immobilized on glutathione-agarose beads
T2 sequence (looked up): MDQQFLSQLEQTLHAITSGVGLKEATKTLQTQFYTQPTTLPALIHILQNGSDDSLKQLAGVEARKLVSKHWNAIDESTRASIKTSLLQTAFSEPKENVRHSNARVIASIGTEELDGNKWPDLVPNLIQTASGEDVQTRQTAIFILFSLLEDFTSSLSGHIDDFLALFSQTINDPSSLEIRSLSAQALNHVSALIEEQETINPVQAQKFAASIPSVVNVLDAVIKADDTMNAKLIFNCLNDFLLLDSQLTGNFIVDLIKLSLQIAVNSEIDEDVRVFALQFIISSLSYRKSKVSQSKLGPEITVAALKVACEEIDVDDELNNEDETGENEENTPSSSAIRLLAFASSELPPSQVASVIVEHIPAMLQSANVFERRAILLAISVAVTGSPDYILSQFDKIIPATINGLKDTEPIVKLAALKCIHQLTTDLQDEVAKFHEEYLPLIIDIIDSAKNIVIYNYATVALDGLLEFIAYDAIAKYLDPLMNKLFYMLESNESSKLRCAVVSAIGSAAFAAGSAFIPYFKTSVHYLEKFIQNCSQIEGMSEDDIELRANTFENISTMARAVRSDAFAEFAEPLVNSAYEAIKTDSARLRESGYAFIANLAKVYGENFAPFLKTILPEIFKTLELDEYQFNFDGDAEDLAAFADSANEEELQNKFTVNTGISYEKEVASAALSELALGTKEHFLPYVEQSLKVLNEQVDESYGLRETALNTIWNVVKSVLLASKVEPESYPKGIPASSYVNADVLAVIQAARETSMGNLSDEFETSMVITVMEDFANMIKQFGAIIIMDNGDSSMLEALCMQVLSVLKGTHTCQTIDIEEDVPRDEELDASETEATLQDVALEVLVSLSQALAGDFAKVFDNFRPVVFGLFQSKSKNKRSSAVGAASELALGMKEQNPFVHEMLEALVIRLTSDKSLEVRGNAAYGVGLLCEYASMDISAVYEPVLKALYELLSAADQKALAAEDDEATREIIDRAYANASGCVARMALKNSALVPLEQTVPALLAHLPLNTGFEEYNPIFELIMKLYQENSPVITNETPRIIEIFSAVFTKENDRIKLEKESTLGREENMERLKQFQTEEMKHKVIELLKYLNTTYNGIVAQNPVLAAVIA

[3] = molecular target: T3, GST-Kap60ΔIBB (S. cerevisiae, UniProt Q02821 81-542); assay: as above
T3 construct: Kap60/Srp1 (importin α) of S. cerevisiae lacking the N-terminal IBB domain (80 amino acids); GST can be removed with TEV protease; also called GST-tagged Kap60ΔIBB; source: E. coli BL21 (DE3) Rosetta Star, immobilized on glutathione-agarose beads
T3 sequence (looked up): T1 sequence (looked up)

[4] = molecular target: B1; assay: pull-down; His6-Rps3/Flag-Yar1 complex immobilized via His6-Rps3 on Ni-NTA agarose, incubated with increasing amounts of purified Kap60ΔIBB for 1 h at 4 °C; eluted with 300 mM imidazole (Ni-NTA eluate); Coomassie staining

Row | Binder | binding result [1] | binding result [2] | binding result [3] | binding result [4]
1 | B1 | binds | binds | binds | –
2 | B2 | – | – | – | binds
